Experimental data from PMC2784926.

Target: β-catenin (UniProt P35222)
Test: GST pull-down after in vitro kinase reaction
Details: reference: WT His-α-catenin with CK2α; sites S641

binding against the reference: stronger
Substance: α-catenin (from UniProt P35221) His-α-catenin S641A with CK2α
